Measured values from patent US20110300138A1 (published 2011).
Where two headings read alike, the source gives them in different places.

What was measured:
[1] = target: TSHR260-AP (human); test: TSHR260-AP bridge ELISA (full length TSHR on wells, TSHR260-AP in solution); IgG 0.1 µg/mL diluted in HBD serum
[2] = target: human TSH receptor (full length, wild type) expressed in CHO cells (human) (UniProt P16473); test: cell-based or functional assay
[3] = target: TSHR260-AP (human); test: TSHR260-AP bridge ELISA (full length TSHR on wells, TSHR260-AP in solution); IgG 10 µg/mL diluted in assay buffer
[4] = target: TSHR260-AP (human); test: TSHR260-AP bridge ELISA (full length TSHR on wells, TSHR260-AP in solution); IgG 100 µg/mL diluted in HBD serum
[5] = target: TSHR260-AP (human); test: TSHR260-AP bridge ELISA (full length TSHR on wells, TSHR260-AP in solution); IgG 250 µg/mL diluted in assay buffer
[6] = target: TSHR260-alkaline phosphatase (TSHR260-AP) (human) (UniProt P05187); test: TSHR260-AP bridge ELISA, full length TSHR on wells; 250 µg/mL, diluted in HBD
[7] = target: TSHR260-AP (human); test: TSHR260-AP bridge ELISA (full length TSHR on wells, TSHR260-AP in solution); IgG 0.005 µg/mL diluted in assay buffer
[8] = target: human TSHR (wild type, full length) expressed in CHO cells (human) (UniProt P16473); test: cell-based or functional assay
[9] = target: human TSHR (thyroid stimulating hormone receptor) expressed in transfected CHO cells (human) (UniProt P16473); test: cell-based or functional assay
[10] = target: TSHR260-alkaline phosphatase (TSHR260-AP) (human) (UniProt P05187); test: TSHR260-AP bridge ELISA, full length TSHR on wells; 0.01 µg/mL, diluted in assay buffer
[11] = target: TSHR260-AP (human); test: TSHR260-AP bridge ELISA (full length TSHR on wells, TSHR260-AP in solution); IgG 0.01 µg/mL diluted in assay buffer
[12] = target: TSHR260-AP (human); test: TSHR260-AP bridge ELISA (full length TSHR on wells, TSHR260-AP in solution); IgG 0.01 µg/mL diluted in HBD serum
[13] = target: human TSH receptor (full length, wild type) expressed on CHO cells (human) (UniProt P16473); test: cell-based or functional assay
[14] = target: human TSHR expressed in CHO cells (human) (UniProt P16473); test: cell-based or functional assay
[15] = target: human TSHR (thyroid stimulating hormone receptor) expressed in transfected CHO cells (human) (UniProt P16473); test: cell-based or functional assay; remark: listed apart in the source
[16] = target: human TSH receptor (full length, wild type) expressed in CHO cells (human) (UniProt P16473); test: cell-based or functional assay; remark: listed apart in the source
[17] = target: human TSH receptor (wild type), expressed on transfected CHO cells (human) (UniProt P16473); test: cell-based or functional assay
[18] = target: human TSHR (wild type, full length) expressed in CHO cells (human) (UniProt P16473); test: cell-based or functional assay; remark: listed apart in the source

Chain of M22 IgG (antibody) (VH): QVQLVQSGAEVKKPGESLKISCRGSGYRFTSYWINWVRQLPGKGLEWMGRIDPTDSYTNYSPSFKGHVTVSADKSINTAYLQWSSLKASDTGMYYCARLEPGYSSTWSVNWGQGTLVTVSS
Chain of M22 IgG (antibody) (V domain): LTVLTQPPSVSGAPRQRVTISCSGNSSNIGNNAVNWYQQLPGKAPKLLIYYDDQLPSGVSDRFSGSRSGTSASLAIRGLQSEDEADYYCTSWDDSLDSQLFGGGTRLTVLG

5B3 IgG (antibody)
Mean absorbance at 405 nm (absorbance at 405 nm) [1]: -0.002 | % Inhibition; T7 serum + 100 µg/mL 5B3 IgG [2]: 0% | % Inhibition; T8 serum + 100 µg/mL 5B3 IgG [2]: 10.9% | % Inhibition; T9 serum + 100 µg/mL 5B3 IgG [2]: 0% | Cyclic AMP concentration; 100 µg/mL 5B3 IgG alone [2]: 2.7 pmol/mL | Cyclic AMP concentration; HBD + 100 µg/mL 5B3 IgG [2]: 4 pmol/mL | Cyclic AMP concentration; T7 serum + 100 µg/mL 5B3 IgG [2]: 91.9 pmol/mL | Cyclic AMP concentration; T8 serum + 100 µg/mL 5B3 IgG [2]: 76.3 pmol/mL | Cyclic AMP concentration; T9 serum + 100 µg/mL 5B3 IgG [2]: 53.2 pmol/mL | Mean absorbance at 405 nm (absorbance at 405 nm) [3]: -0.014 | Mean absorbance at 405 nm (absorbance at 405 nm) [4]: 0.003 | Mean absorbance at 405 nm (absorbance at 405 nm) [5]: 0.018 | Mean absorbance at 405 nm (absorbance at 405 nm) [6]: 0.012 | Mean absorbance at 405 nm (absorbance at 405 nm) [7]: -0.012 | % Inhibition of T13 serum stimulation; 100 µg/mL 5B3 IgG [8]: 22.5% | % Inhibition of T14 serum stimulation; 100 µg/mL 5B3 IgG [8]: 24.6% | % Inhibition of T15 serum stimulation; 100 µg/mL 5B3 IgG [8]: 18.3% | Cyclic AMP concentration; 100 µg/mL 5B3 IgG alone [8]: 4.1 pmol/mL | Cyclic AMP concentration; HBD + 100 µg/mL 5B3 IgG [8]: 5.1 pmol/mL | Cyclic AMP concentration; T13 serum + 100 µg/mL 5B3 IgG [8]: 37.6 pmol/mL | Cyclic AMP concentration; T14 serum + 100 µg/mL 5B3 IgG [8]: 20.5 pmol/mL | Cyclic AMP concentration; T15 serum + 100 µg/mL 5B3 IgG [8]: 41.9 pmol/mL | Cyclic AMP concentration; 3 ng/mL M22 IgG + 10 µg/mL 5B3 IgG [9]: 21.6 pmol/mL | Cyclic AMP concentration; 3 ng/mL M22 IgG + 100 µg/mL 5B3 IgG [9]: 28.1 pmol/mL | Cyclic AMP concentration; 100 µg/mL 5B3 IgG [9]: 1.1 pmol/mL | Mean absorbance at 405 nm (absorbance at 405 nm) [10]: 0.012 | Mean absorbance at 405 nm (absorbance at 405 nm) [11]: 0.012 | Mean absorbance at 405 nm (absorbance at 405 nm) [12]: 0.027 | % Inhibition of M22 IgG (3 ng/mL) stimulation; 100 µg/ml 5B3 IgG [13]: 0% | % Inhibition of pTSH (1 ng/mL) stimulation; 10 µg/mL 5B3 IgG [13]: 0% | % Inhibition of pTSH (1 ng/mL) stimulation; 100 µg/mL 5B3 IgG [13]: 0% | Cyclic AMP concentration in hypotonic medium; 100 µg/mL 5B3 IgG alone [13]: 2.2 pmol/mL | Cyclic AMP concentration in isotonic medium; 100 µg/mL 5B3 IgG alone [13]: 1.4 pmol/mL | Cyclic AMP concentration; 1 ng/mL pTSH + 10 µg/mL 5B3 IgG [13]: 80.7 pmol/mL | Cyclic AMP concentration; 1 ng/mL pTSH + 100 µg/mL 5B3 IgG [13]: 79.3 pmol/mL | Cyclic AMP concentration; 3 ng/mL M22 IgG + 100 µg/ml 5B3 IgG [13]: 41.8 pmol/mL | Cyclic AMP concentration; 100 µg/mL 5B3 IgG alone (no TSH) [13]: 2.6 pmol/mL | Cyclic AMP concentration; 5B3 IgG 100 µg/mL alone [13]: 1.2 pmol/mL | % Inhibition; 3 ng/mL pTSH + 10 µg/mL 5B3 IgG [14]: 7% | % Inhibition; 3 ng/mL pTSH + 100 µg/mL 5B3 IgG [14]: 7% | % Inhibition; 5B3 IgG 10 µg/mL + 3 ng/mL pTSH [14]: 0% | % Inhibition; 5B3 IgG 100 µg/mL + 3 ng/mL pTSH [14]: 0% | % Inhibition; 3 ng/mL M22 IgG + 10 µg/mL 5B3 IgG [15]: 0% | % Inhibition; 3 ng/mL M22 IgG + 100 µg/mL 5B3 IgG [15]: 0% | Cyclic AMP concentration; 3 ng/mL M22 IgG + 10 µg/mL 5B3 IgG [15]: 44.7 pmol/mL | Cyclic AMP concentration; 3 ng/mL M22 IgG + 100 µg/mL 5B3 IgG [15]: 51.3 pmol/mL | Cyclic AMP concentration; 100 µg/mL 5B3 IgG [15]: 2.3 pmol/mL | % Inhibition; T1 serum + 100 µg/mL 5B3 IgG [16]: 4.9% | % Inhibition; T2 serum + 100 µg/mL 5B3 IgG [16]: 0% | % Inhibition; T3 serum + 100 µg/mL 5B3 IgG [16]: 14.4% | Cyclic AMP concentration; 100 µg/mL 5B3 IgG alone [16]: 1 pmol/mL | Cyclic AMP concentration; HBD + 100 µg/mL 5B3 IgG [16]: 2 pmol/mL | Cyclic AMP concentration; T1 serum + 100 µg/mL 5B3 IgG [16]: 94.9 pmol/mL | Cyclic AMP concentration; T2 serum + 100 µg/mL 5B3 IgG [16]: 62 pmol/mL | Cyclic AMP concentration; T3 serum + 100 µg/mL 5B3 IgG [16]: 54.2 pmol/mL | % Inhibition (constitutive activity); 0.01 µg/mL 5B3 IgG [17]: 0% | % Inhibition (constitutive activity); 0.1 µg/mL 5B3 IgG [17]: 0% | % Inhibition (constitutive activity); 0.2 µg/mL 5B3 IgG [17]: 8.2% | % Inhibition (constitutive activity); 1 µg/mL 5B3 IgG [17]: 6.3% | % Inhibition (constitutive activity); 2 µg/mL 5B3 IgG [17]: 12.9% | % Inhibition; 5B3 IgG 0.1 µg/mL + T11 [17]: 29.8% | % Inhibition; 5B3 IgG 1 µg/mL + T11 [17]: 21.4% | % Inhibition; 5B3 IgG 10 µg/mL + T11 [17]: 25.4% | % Inhibition; 5B3 IgG 100 µg/mL + T11 [17]: 27% | % Inhibition; pTSH 3 ng/mL + 10 µg/mL 5B3 [17]: 0% | % Inhibition; pTSH 3 ng/mL + 100 µg/mL 5B3 [17]: 0.5% | Cyclic AMP concentration; 100 µg/mL 5B3 alone [17]: 0.9 pmol/mL | Cyclic AMP concentration; 5B3 IgG 0.1 µg/mL + T11 [17]: 17.7 pmol/mL | Cyclic AMP concentration; 5B3 IgG 1 µg/mL + T11 [17]: 19.8 pmol/mL | Cyclic AMP concentration; 5B3 IgG 10 µg/mL + T11 [17]: 18.8 pmol/mL | Cyclic AMP concentration; 5B3 IgG 100 µg/mL + T11 [17]: 18.4 pmol/mL | Cyclic AMP concentration; 5B3 IgG 100 µg/mL alone [17]: 1 pmol/mL | Cyclic AMP concentration; pTSH 3 ng/mL + 10 µg/mL 5B3 [17]: 66.9 pmol/mL | Cyclic AMP concentration; pTSH 3 ng/mL + 100 µg/mL 5B3 [17]: 63.9 pmol/mL | Cyclic AMP production (constitutive activity); 0.01 µg/mL 5B3 IgG [17]: 58.2 pmol/mL | Cyclic AMP production (constitutive activity); 0.1 µg/mL 5B3 IgG [17]: 58.8 pmol/mL | Cyclic AMP production (constitutive activity); 0.2 µg/mL 5B3 IgG [17]: 53.3 pmol/mL | Cyclic AMP production (constitutive activity); 1 µg/mL 5B3 IgG [17]: 54.4 pmol/mL | Cyclic AMP production (constitutive activity); 2 µg/mL 5B3 IgG [17]: 50.6 pmol/mL | % Inhibition of T5 serum stimulation; 0.1 µg/mL 5B3 IgG [18]: 7% | % Inhibition of T5 serum stimulation; 1 µg/mL 5B3 IgG [18]: 4.1% | % Inhibition of T5 serum stimulation; 10 µg/mL 5B3 IgG [18]: 3.1% | % Inhibition of T5 serum stimulation; 100 µg/mL 5B3 IgG [18]: 12.5% | Cyclic AMP concentration; 0.1 µg/mL 5B3 IgG + T5 [18]: 59.4 pmol/mL | Cyclic AMP concentration; 1 µg/mL 5B3 IgG + T5 [18]: 61.3 pmol/mL | Cyclic AMP concentration; 10 µg/mL 5B3 IgG + T5 [18]: 61.9 pmol/mL | Cyclic AMP concentration; 100 µg/mL 5B3 IgG + T5 [18]: 55.9 pmol/mL | Cyclic AMP concentration; 100 µg/mL 5B3 IgG alone [18]: 1.1 pmol/mL

M22 IgG (antibody)
Mean absorbance at 405 nm (absorbance at 405 nm) [1]: 0.365 | Mean absorbance at 405 nm (absorbance at 405 nm) [3]: 0.872 | Mean absorbance at 405 nm (absorbance at 405 nm) [4]: 0.851 | Mean absorbance at 405 nm (absorbance at 405 nm) [5]: 1.01 | Mean absorbance at 405 nm (absorbance at 405 nm) [6]: 0.833 | Mean absorbance at 405 nm (absorbance at 405 nm) [7]: 0.075 | Cyclic AMP concentration; 3 ng/mL M22 IgG [9]: 21.3 pmol/mL | Mean absorbance at 405 nm (absorbance at 405 nm) [10]: 0.101 | Mean absorbance at 405 nm (absorbance at 405 nm) [11]: 0.101 | Mean absorbance at 405 nm (absorbance at 405 nm) [12]: 0.03 | Cyclic AMP concentration; 3 ng/mL M22 IgG alone [13]: 33.1 pmol/mL | Cyclic AMP concentration; 3 ng/mL M22 IgG [15]: 44.4 pmol/mL | Cyclic AMP concentration at 0.3 ng/mL M22 IgG [16]: 2.36 pmol/mL | Cyclic AMP concentration at 1 ng/mL M22 IgG [16]: 12 pmol/mL | Cyclic AMP concentration at 3 ng/mL M22 IgG [16]: 24.6 pmol/mL | Cyclic AMP concentration at 10 ng/mL M22 IgG [16]: 58.9 pmol/mL | Cyclic AMP production concentration at 1 ng/mL M22 IgG [16]: 8.1 pmol/mL | Cyclic AMP production concentration at 3 ng/mL M22 IgG [16]: 24.3 pmol/mL | Cyclic AMP production concentration at 10 ng/mL M22 IgG [16]: 50.3 pmol/mL | Cyclic AMP production concentration at 30 ng/mL M22 IgG [16]: 60.9 pmol/mL | Cyclic AMP production concentration at 100 ng/mL M22 IgG [16]: 64.6 pmol/mL | Cyclic AMP stimulating activity at 1 ng/mL M22 IgG, units/L (NIBSC 90/672) [16]: 0.3 units/L | Cyclic AMP stimulating activity at 1 ng/mL M22 IgG, units/mg (NIBSC 90/672) [16]: 300 units/mg | Cyclic AMP stimulating activity at 3 ng/mL M22 IgG, units/L (NIBSC 90/672) [16]: 0.8 units/L | Cyclic AMP stimulating activity at 3 ng/mL M22 IgG, units/mg (NIBSC 90/672) [16]: 267 units/mg | Cyclic AMP stimulating activity of M22 IgG, mean units/mg (NIBSC 90/672; mean of 1, 3 and 10 ng/mL) [16]: 286 units/mg
